# Assay: soluble on expression in E. coli; label from the status in PepcDB or PDB records
row,Sequence,soluble on expression in E. coli
1,MGSDKIHHHHHHMNALPLVSVVVPNYNYKRYLNLRIQSILQQTYQNIELILLDDASTDGSEEVLSDYQDHAKVSHILLNEHNTGNPFKQWFKGMQLAKGKYIWIAEADDLCELTFLEKVVPLMEKYQQAAVCFAGSKYIDKDGNVLSYDMNKWKSAIPPYAVFNGKTYAEHNLYWRSYIANASSAIFRKSMVNAQNMEQCLQMRYSGDWLFWFYMAMQGDIIERYEVLNYFRQHNQKVTVKAENNGGGKSEDIEIVRIMEQHLTHLSRYKRCIRRGMLYNRIAKLSTTDRVKLQLWELLRQKLNGTRKDGRLERLNRIARLFCPFVLTMKRDRLTPSREIG,not soluble
2,MAHHHHHHMKKLGLVLDAAAVEKSQRDLQSYQIKNNNSLQLRAFLLNESGMFTKDGRKLPGSVTKEVIDDTSKRIIGRGASGAVYFAKLKDGGPVALKHIPITSKPHRDEVDRELSFFSSQSNSPFVMKNLGAFWDSEEAAIVIPMEWMAYTLKDLSCFWEGIEETMLRDIFFQVVSGLVYLHDTKRVIHRDLKPSNLLIRDDGYVKIGDFGVSKLVHTLDVSSTYVGTMYFMAPERLEQGAYGFNSDVWSLGLTVLSTITGKNPWAPPEEMNIFQLLGRIAGDTTPTLPEKPAYSEEARDFVKKCLVRDPQERPSTAELLKHPFFKGCTEASAVANVKQGVDYMTRLINSDAKKNGLLKRSPEDVTKEVNAKLDRLGDL,soluble
3,DTHFPICIFCCGCCHRSKCGMCCKT,soluble
4,MDSMDHRIERLEYYIQLLVKTVDMDRYPFYALLIDKGLSKEEGEAVMRICDELSEELATQKAQGFVTFDKLLALFAGQLNEKLDVHETIFALYEQGLYQELMEVFIDIMKHFD,soluble
5,MGSDKIHHHHHHMKKLVATAPRVAALVEYEDRAILANEVKIRVRFGAPKHGTEVVDFRAASPFIDEDFNGEWQMFTPRPADAPRGIEFGKFQLGNMVVGDIIECGSDVTDYAVGDSVCGYGPLSETVIINAVNNYKLRKMPQGSSWKNAVCYDPAQFAMSGVRDANVRVGDFVVVVGLGAIGQIAIQLAKRAGASVVIGVDPIAHRCDIARRHGADFCLNPIGTDVGKEIKTLTGKQGADVIIETSGYADALQSALRGLAYGGTISYVAFAKPFAEGFNLGREAHFNNAKIVFSRACSEPNPDYPRWSRKRIEETCWELLMNGYLNCEDLIDPVVTFANSPESYMQYVDQHPEQSIKMGVTF,not soluble
6,MGSDKIHHHHHHMTAPTAQSMQAQPIHARLMNGEVLSQDDATAFMREVMSGDMSGVRMAAALAALRVRGETPEEIAGFAQAMRESAVTVKVRPRDVLMDVVGTGGDGAHTFNISTTTAFVLAGAGVPIAKHGNRAASSRAGSADVLEALGVNLDASPEVIQEAIDTLGVGFMFARNYHPALRHAAPVRSDLAARTVFNILGPLSNPAGATHLVVGVFRADLTRTLAEALRHLGAKGATVVYGDGLDEFTVCGPNTVSGLRDGEIIDRTMHPEEFGVDLHPKTAIVGGSPAENAEITHALLTGGGTPAQKDIVALNAGAALRTAGRVGTIREGVEQAREVMKGGQGWEMLQKYGALTKR,not soluble
7,HTLNKALADTRANLTESVGNAGEVLHDITGVVSTPMPSENDSENLFDSVSNYPTGNKSDTHNAFGSSGKTAPMPYQSAYAPQQRSLSLRESRAAMNTYAELYKKTDDIDLELSRFEQARFGNMPSETPAPQTDTPLSDGIPSQSELPPLGFAIAQLLGIYILAQAEDSLLLIDMHAAAERVNYEKMKRQRQENGNLQSQRLLIPVTFAASHEECAALADYAETLAGFGLELSDMGGNTLAVRAVPAMLGKADVVSLAKDVLNELAQVGSSQTIEEHENRILATMSCHGSIRAGRRLTLPEMNALLRDMENTPRSNQCNHGRPTWVKLTLKELDALFLRGQ,not soluble
8,MTLEKFVDALPIPDTLKPVQQSKEKTYYEVTMEECTHQLHRDLPPTRLWGYNGLFPGPTIEVKRNENVYVKWMNNLPSTHFLPIDHTIHHSDSQHEEPEVKTVVHLHGGVTPDDSDGYPEAWFSKDFEQTGPYFKREVYHYPNQQRGAILWYHDHAMALTRLNVYAGLVGAYIIHDPKEKRLKLPSDEYDVPLLITDRTINEDGSLFYPSAPENPSPSLPNPSIVPAFCGETILVNGKVWPYLEVEPRKYRFRVINASNTRTYNLSLDNGGDFIQIGSDGGLLPRSVKLNSFSLAPAERYDIIIDFTAYEGESIILANSAGCGGDVNPETDANIMQFRVTKPLAQKDESRKPKYLASYPSVQHERIQNIRTLKLAGTQDEYGRPVLLLNNKRWHDPVTETPKVGTTEIWSIINPTRGTHPIHLHLVSFRVLDRRPFDIARYQESGELSYTGPAVPPPPSEKGWKDTIQAHAGEVLRIAATFGPYSGRYVWHCHILEHEDYDMMRPMDITDPHK,soluble
9,MSLETINNSAKKQPGLYISGQYKPSVSVFSNFSVKETNVPTKQLIALKKDINSVAVGSNATTGISNPGNFTIPYTAEFQDNVANFNGAVGYSFPDSLRIEIEGFHEKFDVKNPGGYTQVKDAYRYFALARDLKDGFFEPKAEDTGVYHTVMKNDGLSILSTMVNVCYDFSVDELPVLPYICAGMGINAIEFFDALHVKFAYQGKLGISYQLFTKVNLFLDGYYHQVIGNQFKNLNVNHVYTLKESPKVTSAVATLDIAYFGGEVGIRFTFEGHHHHHH,not soluble
10,MMDDILKQIKAGEVSGVQFKERILDKYDIACELVAFSNSHGGKLVVGIKDKTGETNALSYSEVQETTNLLSDIASENVVPSILIKIDTVEVEDGNLVVATVKEGLNKPYHDNKGIVWVKNGADKRKVFDNAELAEMMTDCGSFAPDEAGVRDATVNDLDATTIKQFLGNRFERVLDKKGLTGDAFNEASLDMICSAIAKGHDCEKILRNLRFIRPDGTLTVAAMLLFGKYTQRWMPMMTAKCICFAGNSVGSKVFRDKVNDADMEGNLLHQYDTIMDFFTRNLHNVQVGDEFNSMGKLEIPYTSLVEFTVNSLVHRSLNMKAPVRIFIFDNRVEIHSPGALPNGLTIDDIKAGTSMPRNTFLFNNAIYLLPYTGVGSGITRALDEDINVTFMNNDKAQEFVITVWRGESNQVEDLDTGLRHSDTDLDTGLRHSDTDLDTKRVTLTNKEKDIVNFCSVPRTTKEILDRIGVSMHSKNRERYITSLVAAGYLQMTNPDNPTASNQKYKKVNKRLEHHHHHH,soluble
11,MGPHFTLLLAALANCLCPGRPCIKCDQFVTDALKTFENTYLNDHLPHDIHKNVMRMVNHEVSSFGVVTSAEDSYLGAVDENTLEQATWSFLKDLKRITDSDLKGELFIKELLWMLRHQKDIFNNLARQFQKEVLCPNKCGVMSQTLIWCLKCEKQLHICRK,not soluble
12,MGSDKIHHHHHHMKRMSCLLLGGLLLSGCGKEEAPPEPIRPVVFVEAQPESMQDFGRFAGNIQARYQSVLGFRVAGRIARRNVDVGSEVKKGDLLATLDPTDQQNNVRGRQGDLANVQAQWINAQANARRQQELFDRGVGAQAQLDVALTDLKTASSSLEQAKAAEQQARDQLSYSELHSDHDAVVTEWKVEAGQVVTAGQEVVTLARPDIKEAVIDLPDALADQLPRDVVFTVASQLNPDINTTATIREIEPQADRTTRTRRTRLSLAETPVAFRLGTAISVTLSSTITARMRLPINALQEVDGKRQIWIVDPQSQTVNPRAVNITSRDNDSFVLADGVKAGEKVVSAGVNSLKPGQKVKVDEESPR,not soluble
13,MSRPTLQVDLLVESFNYKAWSDRRTLDAIARIDAEAFPASLAFALQQLNHMAIVEELFRARLLGEPAPHQQTNSEVVPGYDVLRRRLEDSAAWFAGYVAELPLERRGEWLRFRFADGRDGGMTRQEILFHIVNHGTYHRGAIGHALDLAGAPRPADTYTLYIHSAQPERRE,not soluble
14,MGIMELARIDLSRDDLDKRIGGGIPHGSLIIIEGEESTGKSVLCQRLAYGFLQNRYSVTYVSTQLTTLEFIKQMNSLNYSINKKLLSGALLYIPVYPLIADNKKKDGFLKKVMETRAFYEKDVIIFDSISALIANDASEVNVDDLMAFFKRITALKKIIICTVNPKELPESVLTIIRTSATMLIRTELFTFGGDLKNLAKILKYNMAPGSYQKNIVFRVEPKIGIAVEIASVALEHHHHHH,soluble
15,MGILAERLDSLSIETSSPDGQITGVFRPTSALSVHFRDGGYRGYTERGLERQLAALVASAWARYWRARQAAVAEATGEPAVPHQPWDTAGRRYRAERDRTRCEGMSAGHRVHVSHTGLRDWNVVVRDGTLSTLDEFGFAAELESGFTAAMRDHRHKLMMLRDKHLPR,not soluble

# Reference: the DeepSol protein solubility set
